According to PMC7558102, “Hybrid Multimodal Imaging Synthons for Chemoselective and Efficient Biomolecule Modification with Chelator and Near-Infrared Fluorescent Cyanine Dye” (Pharmaceuticals, 2020):
Like-named read-outs stand apart in the source and are kept apart here.

How the values were obtained:
[1] = water/1-octanol partition coefficients (logD) of 68Ga-labeled compounds, γ-counting; format: physicochemical; settings: pH 7.4
Procedure: The mixtures were vigorously shaken for 5 min on a vibrating plate. After subsequent centrifugation at 13,000 rpm for 5 min, 125 µL was taken from each phase and measured in a γ-counter. The logD values were calculated from three or four independent experiments, each performed in triplicate. For 18, the logD was determined by semipreparative HPLC. For this purpose, a solution of 18 (10 µL, c = 5 × 10^−4 mol/L) in water was added to a mixture of 1 mL 1-octanol and 990 µL phosphate buffered solution (0.05 M, pH 7.4) and vigorously shaken for 5 min. After centrifugation, the phases were separated and both phases were analyzed by semipreparative HPLC and the peaks of the UV signals at 214 nm were integrated. The logD was determined by three separate measurements, each experiment performed in triplicate.

[2] = photophysical properties (absorbance and emission measurements); format: physicochemical; settings: for λmax(em): excitation wavelength λex = 650 nm
Procedure: Finally, the photophysical properties were determined for dyes, MIS and their conjugates. It could be shown that the photophysical properties remained largely unaltered, including absorption coefficients and emission characteristics (Table 1). […] The only change in photophysical properties we qualitatively observed was an increase in the quantum yields of the dye conjugates compared to their unconjugated leads 1–3, an effect that was described before and can be attributed to the conjugation of sterically demanding groups (such as the PESIN homodimers used here), resulting in a decrease in aggregation of the dye molecules and thus a reduced fluorescence quenching. γ-Counting was performed using a 2480 Wizard gamma counter system from Perkin Elmer. A Cary 100 Bio system (Varian) was used to record the UV/Vis-Spectra together with 4 mL PMMA cuvettes from Sigma-Aldrich. Furthermore, for absorbance and emission measurements, a Tecan Infinite M200 Microplate reader together with a Nunc Micro-Well 96 solid plate from ThermoFisher was used.

Compound: CC1(C)C(/C=C/C2=C(c3ccc(C(=O)NCCCC[C@H](NC(=O)CC[C@H](C(=O)O)N4CCN(CC(=O)O)CCN(CC(=O)O)CC4)C(=O)N[C@@H](CS)C(N)=O)cc3)C(=C/C=C3/N(CCCCS(=O)(=O)[O-])c4ccc5ccccc5c4C3(C)C)/CCC2)=[N+](CCCCS(=O)(=O)O)c2ccc3ccccc3c21 (single isomer, unassigned) [[68Ga]Ga-10, metal not drawn]
- logD [1]: -1.29 ± 0.11

Compound: CC1(C)C(=CC=C2CCCC(C=CC3=[N+](CCCCS(=O)(=O)[O-])c4ccc(C(=O)NCCCC[C@H](NC(=O)CC[C@H](C(=O)O)N5CCN(CC(=O)O)CCN(CC(=O)O)CC5)C(=O)N[C@@H](CS)C(N)=O)cc4C3(C)C)=C2c2ccccc2)N(CCCCS(=O)(=O)O)c2ccc(S(=O)(=O)O)cc21 (single isomer, unassigned) [[68Ga]Ga-11, metal not drawn]
- logD [1]: -3.05 ± 0.08

Compound: CC1(C)C(=CC=C2CCCC(C=CC3=[N+](CCCCS(=O)(=O)[O-])c4ccc(S(=O)(=O)O)cc4C3(C)C)=C2c2ccc(CCC(=O)NCCCC[C@H](NC(=O)CC[C@H](C(=O)O)N3CCN(CC(=O)O)CCN(CC(=O)O)CC3)C(=O)N[C@@H](CS)C(N)=O)cc2)N(CCCCS(=O)(=O)O)c2ccc(S(=O)(=O)O)cc21 (single isomer, unassigned) [[68Ga]Ga-12, metal not drawn]
- logD [1]: -3.47 ± 0.17

Compound: CC1(C)C(/C=C/C2=C(c3ccc(C(=O)NCCCC[C@H](NC(=O)CC[C@H](C(=O)O)N4CCN(CC(=O)O)CCN(CC(=O)O)CC4)C(=O)N[C@@H](CS)C(N)=O)cc3)C(=C/C=C3/N(CCCCS(=O)(=O)[O-])c4ccc5ccccc5c4C3(C)C)/CCC2)=[N+](CCCCS(=O)(=O)O)c2ccc3ccccc3c21 [Compound 10]
- logD [1]: −1.29 ± 0.11

Compound: CC1(C)C(=CC=C2CCCC(C=CC3=[N+](CCCCS(=O)(=O)[O-])c4ccc(C(=O)NCCCC[C@H](NC(=O)CC[C@H](C(=O)O)N5CCN(CC(=O)O)CCN(CC(=O)O)CC5)C(=O)N[C@@H](CS)C(N)=O)cc4C3(C)C)=C2c2ccccc2)N(CCCCS(=O)(=O)O)c2ccc(S(=O)(=O)O)cc21 [Compound 11]
- logD [1]: −3.05 ± 0.08

Compound: CC1(C)C(=CC=C2CCCC(C=CC3=[N+](CCCCS(=O)(=O)[O-])c4ccc(S(=O)(=O)O)cc4C3(C)C)=C2c2ccc(CCC(=O)NCCCC[C@H](NC(=O)CC[C@H](C(=O)O)N3CCN(CC(=O)O)CCN(CC(=O)O)CC3)C(=O)N[C@@H](CS)C(N)=O)cc2)N(CCCCS(=O)(=O)O)c2ccc(S(=O)(=O)O)cc21 [Compound 12]
- logD [1]: −3.47 ± 0.17

Compound: CSCC[C@H](NC(=O)[C@H](CC(C)C)NC(=O)[C@H](Cc1c[nH]cn1)NC(=O)CNC(=O)[C@@H](NC(=O)[C@H](C)NC(=O)[C@H](Cc1c[nH]c2ccccc12)NC(=O)[C@H](CCC(N)=O)NC(=O)CCOCCOCCOCCOCCNC(=O)CON=Cc1ccc(C(=O)NCCCN(CCCNC(=O)c2ccc(C=NOCC(=O)NCCOCCOCCOCCOCCC(=O)N[C@@H](CCC(N)=O)C(=O)N[C@@H](Cc3c[nH]c4ccccc34)C(=O)N[C@@H](C)C(=O)N[C@H](C(=O)NCC(=O)N[C@@H](Cc3c[nH]cn3)C(=O)N[C@@H](CC(C)C)C(=O)N[C@@H](CCSC)C(N)=O)C(C)C)cc2)CC(=O)N[C@H](CSC2CC(=O)N(CCN3C(=O)CC(SC[C@H](NC(=O)[C@H](CCCCNC(=O)c4ccc(C5=C(C=CC6=[N+](CCCCS(=O)(=O)[O-])c7ccc8ccccc8c7C6(C)C)CCCC5=CC=C5N(CCCCS(=O)(=O)O)c6ccc7ccccc7c6C5(C)C)cc4)NC(=O)CC[C@H](C(=O)O)N4CCN(CC(=O)O)CCN(CC(=O)O)CC4)C(N)=O)C3=O)C2=O)C(=O)NCCOCCOCC(N)=O)cc1)C(C)C)C(N)=O (stereo partly drawn) [Compound 14]
- Stokes Shift [2]: 10 nm
- λmax(abs) [2]: 735/810
- λmax(em) [2]: 820 nm

Compound: CSCC[C@H](NC(=O)[C@H](CC(C)C)NC(=O)[C@H](Cc1c[nH]cn1)NC(=O)CNC(=O)[C@@H](NC(=O)[C@H](C)NC(=O)[C@H](Cc1c[nH]c2ccccc12)NC(=O)[C@H](CCC(N)=O)NC(=O)CCOCCOCCOCCOCCNC(=O)CON=Cc1ccc(C(=O)NCCCN(CCCNC(=O)c2ccc(C=NOCC(=O)NCCOCCOCCOCCOCCC(=O)N[C@@H](CCC(N)=O)C(=O)N[C@@H](Cc3c[nH]c4ccccc34)C(=O)N[C@@H](C)C(=O)N[C@H](C(=O)NCC(=O)N[C@@H](Cc3c[nH]cn3)C(=O)N[C@@H](CC(C)C)C(=O)N[C@@H](CCSC)C(N)=O)C(C)C)cc2)CC(=O)N[C@H](CSC2CC(=O)N(CCN3C(=O)CC(SC[C@H](NC(=O)[C@H](CCCCNC(=O)c4ccc5c(c4)C(C)(C)C(C=CC4=C(c6ccccc6)C(=CC=C6N(CCCCS(=O)(=O)O)c7ccc(S(=O)(=O)O)cc7C6(C)C)CCC4)=[N+]5CCCCS(=O)(=O)[O-])NC(=O)CC[C@H](C(=O)O)N4CCN(CC(=O)O)CCN(CC(=O)O)CC4)C(N)=O)C3=O)C2=O)C(=O)NCCOCCOCC(N)=O)cc1)C(C)C)C(N)=O (stereo partly drawn) [Compound 15]
- Stokes Shift [2]: 30 nm
- λmax(abs) [2]: 705/770
- λmax(em) [2]: 800 nm

Compound: CSCC[C@H](NC(=O)[C@H](CC(C)C)NC(=O)[C@H](Cc1c[nH]cn1)NC(=O)CNC(=O)[C@@H](NC(=O)[C@H](C)NC(=O)[C@H](Cc1c[nH]c2ccccc12)NC(=O)[C@H](CCC(N)=O)NC(=O)CCOCCOCCOCCOCCNC(=O)CON=Cc1ccc(C(=O)NCCCN(CCCNC(=O)c2ccc(C=NOCC(=O)NCCOCCOCCOCCOCCC(=O)N[C@@H](CCC(N)=O)C(=O)N[C@@H](Cc3c[nH]c4ccccc34)C(=O)N[C@@H](C)C(=O)N[C@H](C(=O)NCC(=O)N[C@@H](Cc3c[nH]cn3)C(=O)N[C@@H](CC(C)C)C(=O)N[C@@H](CCSC)C(N)=O)C(C)C)cc2)CC(=O)N[C@H](CSC2CC(=O)N(CCN3C(=O)CC(SC[C@H](NC(=O)[C@H](CCCCNC(=O)CCc4ccc(C5=C(C=CC6=[N+](CCCCS(=O)(=O)[O-])c7ccc(S(=O)(=O)O)cc7C6(C)C)CCCC5=CC=C5N(CCCCS(=O)(=O)O)c6ccc(S(=O)(=O)O)cc6C5(C)C)cc4)NC(=O)CC[C@H](C(=O)O)N4CCN(CC(=O)O)CCN(CC(=O)O)CC4)C(N)=O)C3=O)C2=O)C(=O)NCCOCCOCC(N)=O)cc1)C(C)C)C(N)=O (stereo partly drawn) [Compound 16]
- Stokes Shift [2]: 20 nm
- λmax(abs) [2]: 700/770
- λmax(em) [2]: 790 nm

Compound: NC(=O)C(CS)NC(=O)CNC(=O)CCC(C(=O)O)N1CCN(CC(=O)O)CCN(CC(=O)O)CC1 (stereo not drawn) [Compound 19, NH2-Cys-Gly-NODA-GA]
- logD ([1]; 68Ga-labeled compound, 1-octanol / phosphate buffer 0.05 M, read-out: logD): -3.35 ± 0.15

Compound: CSCC[C@H](NC(=O)[C@H](CC(C)C)NC(=O)[C@H](Cc1c[nH]cn1)NC(=O)CNC(=O)[C@@H](NC(=O)[C@H](C)NC(=O)[C@H](Cc1c[nH]c2ccccc12)NC(=O)[C@H](CCC(N)=O)NC(=O)CCOCCOCCOCCOCCNC(=O)CON=Cc1ccc(C(=O)NCCCN(CCCNC(=O)c2ccc(C=NOCC(=O)NCCOCCOCCOCCOCCC(=O)N[C@@H](CCC(N)=O)C(=O)N[C@@H](Cc3c[nH]c4ccccc34)C(=O)N[C@@H](C)C(=O)N[C@H](C(=O)NCC(=O)N[C@@H](Cc3c[nH]cn3)C(=O)N[C@@H](CC(C)C)C(=O)N[C@@H](CCSC)C(N)=O)C(C)C)cc2)CC(=O)N[C@H](CSC2CC(=O)N(CCN3C(=O)CC(SC[C@H](NC(=O)[C@H](CCCCNC(=O)c4ccc(C5=C(C=CC6=[N+](CCCCS(=O)(=O)[O-])c7ccc8ccccc8c7C6(C)C)CCCC5=CC=C5N(CCCCS(=O)(=O)O)c6ccc7ccccc7c6C5(C)C)cc4)NC(=O)CC[C@H](C(=O)O)N4CCN(CC(=O)O)CCN(CC(=O)O)CC4)C(N)=O)C3=O)C2=O)C(=O)NCCOCCOCC(N)=O)cc1)C(C)C)C(N)=O (stereo partly drawn) [[68Ga]Ga-14, metal not drawn]
- logD [1]: -1.33 ± 0.04

Compound: CSCC[C@H](NC(=O)[C@H](CC(C)C)NC(=O)[C@H](Cc1c[nH]cn1)NC(=O)CNC(=O)[C@@H](NC(=O)[C@H](C)NC(=O)[C@H](Cc1c[nH]c2ccccc12)NC(=O)[C@H](CCC(N)=O)NC(=O)CCOCCOCCOCCOCCNC(=O)CON=Cc1ccc(C(=O)NCCCN(CCCNC(=O)c2ccc(C=NOCC(=O)NCCOCCOCCOCCOCCC(=O)N[C@@H](CCC(N)=O)C(=O)N[C@@H](Cc3c[nH]c4ccccc34)C(=O)N[C@@H](C)C(=O)N[C@H](C(=O)NCC(=O)N[C@@H](Cc3c[nH]cn3)C(=O)N[C@@H](CC(C)C)C(=O)N[C@@H](CCSC)C(N)=O)C(C)C)cc2)CC(=O)N[C@H](CSC2CC(=O)N(CCN3C(=O)CC(SC[C@H](NC(=O)[C@H](CCCCNC(=O)c4ccc5c(c4)C(C)(C)C(C=CC4=C(c6ccccc6)C(=CC=C6N(CCCCS(=O)(=O)O)c7ccc(S(=O)(=O)O)cc7C6(C)C)CCC4)=[N+]5CCCCS(=O)(=O)[O-])NC(=O)CC[C@H](C(=O)O)N4CCN(CC(=O)O)CCN(CC(=O)O)CC4)C(N)=O)C3=O)C2=O)C(=O)NCCOCCOCC(N)=O)cc1)C(C)C)C(N)=O (stereo partly drawn) [[68Ga]Ga-15, metal not drawn]
- logD [1]: -2.48 ± 0.14
